Source: patent publication US20120238493A1 (INDIANA UNIVERSITY RESEARCH AND TECHNOLOGY, published 2012)
Where two headings read alike, the source gives them in different places. *1 amine or outer side, *2 acyl side, *3 side chain or, on linkers, in order; H or OH if unused. Bridges are numbered along the chain shown (N, C = ends). Where no end group is shown, it is not given here. Side-chain parts run from the residue outwards. [ ]: non-standard residue; d: D form. The star is where a group is joined. γGlu = O=C(O)[C@H](CCC(=O)[*:2])N[*:1]; Palmitoyl = CCCCCCCCCCCCCCCC(=O)*; Suc = O=C(CCC(=O)[*:2])[*:1]; Aib = CC(C)(N)C(=O)O; βAla = NCCC(=O)O

How the values were obtained:
Assay in all cases: cell-based or functional assay
[1] = target: T1, GLP-1 receptor (UniProt P43220 24-463, limits assumed)
[2] = target: T2, glucagon receptor (UniProt P47871 26-477, limits assumed)
T2 sequence (P47871 26-477 limits assumed): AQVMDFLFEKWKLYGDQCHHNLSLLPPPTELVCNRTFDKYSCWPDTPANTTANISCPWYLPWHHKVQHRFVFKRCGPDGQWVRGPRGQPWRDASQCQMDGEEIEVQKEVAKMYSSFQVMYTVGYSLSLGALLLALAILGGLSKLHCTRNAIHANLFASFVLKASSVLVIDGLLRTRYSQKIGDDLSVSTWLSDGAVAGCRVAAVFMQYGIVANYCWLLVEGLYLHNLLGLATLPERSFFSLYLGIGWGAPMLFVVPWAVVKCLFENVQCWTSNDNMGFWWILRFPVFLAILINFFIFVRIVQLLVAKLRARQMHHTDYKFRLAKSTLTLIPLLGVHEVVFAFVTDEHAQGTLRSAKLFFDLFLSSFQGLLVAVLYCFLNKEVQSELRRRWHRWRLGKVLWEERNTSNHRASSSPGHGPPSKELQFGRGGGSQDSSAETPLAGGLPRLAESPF

[3] = target: T3, GIP receptor (UniProt P48546 22-466, limits assumed)
T3 sequence (looked up): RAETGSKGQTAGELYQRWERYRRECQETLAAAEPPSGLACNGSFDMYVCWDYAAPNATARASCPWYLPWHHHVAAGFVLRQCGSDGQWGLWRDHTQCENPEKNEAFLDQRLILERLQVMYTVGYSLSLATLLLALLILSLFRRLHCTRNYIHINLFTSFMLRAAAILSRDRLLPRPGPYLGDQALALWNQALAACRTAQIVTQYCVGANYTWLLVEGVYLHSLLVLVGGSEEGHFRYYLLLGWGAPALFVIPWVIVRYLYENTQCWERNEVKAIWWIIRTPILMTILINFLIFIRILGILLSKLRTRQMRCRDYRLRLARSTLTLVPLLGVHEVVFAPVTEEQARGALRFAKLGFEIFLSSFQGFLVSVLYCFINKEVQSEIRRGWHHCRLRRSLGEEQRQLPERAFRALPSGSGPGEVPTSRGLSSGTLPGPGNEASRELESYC

[4] = target: T1, GLP-1 receptor; remark: listed apart in the source
[5] = target: T2, glucagon receptor; remark: listed apart in the source
[6] = target: T3, GIP receptor; remark: listed apart in the source
[7] = target: T1, GLP-1 receptor; remark: listed apart in the source
[8] = target: T2, glucagon receptor; remark: listed apart in the source
[9] = target: T3, GIP receptor; remark: listed apart in the source
[10] = target: T1, GLP-1 receptor; remark: listed apart in the source
Target sequence in this assay (P43220 24-463 limits assumed): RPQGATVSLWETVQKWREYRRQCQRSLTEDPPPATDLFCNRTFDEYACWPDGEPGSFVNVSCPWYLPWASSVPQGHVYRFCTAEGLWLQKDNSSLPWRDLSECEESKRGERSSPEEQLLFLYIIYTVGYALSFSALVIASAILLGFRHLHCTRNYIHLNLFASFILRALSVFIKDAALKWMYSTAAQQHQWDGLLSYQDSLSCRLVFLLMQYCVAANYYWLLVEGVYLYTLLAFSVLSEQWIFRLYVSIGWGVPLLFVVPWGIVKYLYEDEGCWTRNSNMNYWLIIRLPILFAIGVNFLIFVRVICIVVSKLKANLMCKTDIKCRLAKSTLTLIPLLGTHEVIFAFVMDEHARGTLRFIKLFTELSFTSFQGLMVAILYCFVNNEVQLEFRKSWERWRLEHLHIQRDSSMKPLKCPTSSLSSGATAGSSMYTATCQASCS

[11] = target: T2, glucagon receptor; remark: listed apart in the source
[12] = target: T3, GIP receptor; remark: listed apart in the source
[13] = target: T1, GLP-1 receptor; remark: listed apart in the source
[14] = target: T2, glucagon receptor; remark: listed apart in the source

B1: peptide of SEQ ID NO: 212 (peptide)
peptide: H[Aib]QGTFTSDYSKYLDERAAQDFVQWLLDGGPSSGAPPPSY(Palmitoyl)G-NH2
modifications: also: Y40 O-2palmitic acid, exact structure not given here
[1]
  EC50 (cAMP reporter): 4 pM
[2]
  EC50 (cAMP reporter): 7 pM

B2: Analog No. 37: Aib2, K10acyl, E16, Aib20, E21, L27, D28 (SEQ ID NO: 31) (peptide)
peptide: H[Aib]QGTFTSDK([γGlu-Palmitoyl])SKYLDERRA[Aib]EFVQWLLDT-NH2
modifications: N-terminus assumed
SMILES: CCCCCCCCCCCCCCCC(=O)N[C@@H](CCC(=O)NCCCC[C@H](NC(=O)[C@H](CC(=O)O)NC(=O)[C@H](CO)NC(=O)[C@@H](NC(=O)[C@H](Cc1ccccc1)NC(=O)[C@@H](NC(=O)CNC(=O)[C@H](CCC(N)=O)NC(=O)C(C)(C)NC(=O)[C@@H](N)Cc1c[nH]cn1)[C@@H](C)O)[C@@H](C)O)C(=O)N[C@@H](CO)C(=O)N[C@@H](CCCCN)C(=O)N[C@@H](Cc1ccc(O)cc1)C(=O)N[C@@H](CC(C)C)C(=O)N[C@@H](CC(=O)O)C(=O)N[C@@H](CCC(=O)O)C(=O)N[C@@H](CCCNC(=N)N)C(=O)N[C@@H](CCCNC(=N)N)C(=O)N[C@@H](C)C(=O)NC(C)(C)C(=O)N[C@@H](CCC(=O)O)C(=O)N[C@@H](Cc1ccccc1)C(=O)N[C@H](C(=O)N[C@@H](CCC(N)=O)C(=O)N[C@@H](Cc1c[nH]c2ccccc12)C(=O)N[C@@H](CC(C)C)C(=O)N[C@@H](CC(C)C)C(=O)N[C@@H](CC(=O)O)C(=O)N[C@H](C(N)=O)[C@@H](C)O)C(C)C)C(=O)O
[3]
  EC50 (cAMP reporter): 8 pM
[4]
  EC50 (cAMP reporter): 4.4 pM
[5]
  EC50 (cAMP reporter): 8 pM
[6]
  EC50 (cAMP reporter): 8 pM
[7]
  EC50 (cAMP reporter): 4.4 pM
[8]
  EC50 (cAMP reporter): 8 pM

B3: peptide of SEQ ID NO: 91 (peptide)
peptide: Y[Aib]QGTFTSDK([γGlu-γGlu-Palmitoyl])SIYLDKQAA[Aib]EFVNWLLDGGPSSGAPPPS-NH2
modifications: N-terminus assumed
SMILES: CCCCCCCCCCCCCCCC(=O)N[C@@H](CCC(=O)N[C@@H](CCC(=O)NCCCC[C@H](NC(=O)[C@H](CC(=O)O)NC(=O)[C@H](CO)NC(=O)[C@@H](NC(=O)[C@H](Cc1ccccc1)NC(=O)[C@@H](NC(=O)CNC(=O)[C@H](CCC(N)=O)NC(=O)C(C)(C)NC(=O)[C@@H](N)Cc1ccc(O)cc1)[C@@H](C)O)[C@@H](C)O)C(=O)N[C@@H](CO)C(=O)N[C@H](C(=O)N[C@@H](Cc1ccc(O)cc1)C(=O)N[C@@H](CC(C)C)C(=O)N[C@@H](CC(=O)O)C(=O)N[C@@H](CCCCN)C(=O)N[C@@H](CCC(N)=O)C(=O)N[C@@H](C)C(=O)N[C@@H](C)C(=O)NC(C)(C)C(=O)N[C@@H](CCC(=O)O)C(=O)N[C@@H](Cc1ccccc1)C(=O)N[C@H](C(=O)N[C@@H](CC(N)=O)C(=O)N[C@@H](Cc1c[nH]c2ccccc12)C(=O)N[C@@H](CC(C)C)C(=O)N[C@@H](CC(C)C)C(=O)N[C@@H](CC(=O)O)C(=O)NCC(=O)NCC(=O)N1CCC[C@H]1C(=O)N[C@@H](CO)C(=O)N[C@@H](CO)C(=O)NCC(=O)N[C@@H](C)C(=O)N1CCC[C@H]1C(=O)N1CCC[C@H]1C(=O)N1CCC[C@H]1C(=O)N[C@@H](CO)C(N)=O)C(C)C)[C@@H](C)CC)C(=O)O)C(=O)O
[6]
  EC50 (cAMP reporter): 5 pM
[7]
  EC50 (cAMP reporter): 8 pM
[8]
  EC50 (cAMP reporter): 73 pM

B4: peptide of SEQ ID NO: 142 (peptide)
peptide: Y[Aib]EGTFTSDYSIYLDKQAA[Aib]EFVNWLLAGGPSSGAPPPSK([Suc-C18])G-NH2
[9]
  EC50 (cAMP reporter): 1 pM
[10]
  EC50 (cAMP reporter): 4 pM
[11]
  EC50 (cAMP reporter): 121 pM

B5: mt-405 (SEQ ID NO: 14) (peptide)
peptide: Y[Aib]QGTFTSDYSKYLDEIHQKDFVNWLLAQ-NH2
modifications: not fully specified (residue 20)
[12]
  EC50 (cAMP reporter): 3.9 pM
  relative activity (to native hormone): 425%
[13]
  EC50 (cAMP reporter): 2.2 pM
  relative activity (to native hormone): 717%
[14]
  EC50 (cAMP reporter): 9.6 pM
  relative activity (to native hormone): 797%

B6: peptide of SEQ ID NO: 139 (peptide)
peptide: Y[Aib]EGTFTSDYSIYLDKQAA[Aib]EFVNWLLAGGPSSGAPPPSK(Palmitoyl)G-NH2
[9]
  EC50 (cAMP reporter): 1 pM
[10]
  EC50 (cAMP reporter): 5 pM
[11]
  EC50 (cAMP reporter): 203 pM

B7: mt-404 (SEQ ID NO: 13) (peptide)
peptide: HSQGTFISDYSKALDEIHQKEFIAWLMNT-NH2
modifications: lactam 16-20; not fully specified (residue 2); also: AIB at position 2 and position 20 (given S and K), any further modification only
[12]
  EC50 (cAMP reporter): 32.7 pM
  relative activity (to native hormone): 50.6%
[13]
  EC50 (cAMP reporter): 6 pM
  relative activity (to native hormone): 258%
[14]
  EC50 (cAMP reporter): 108 pM
  relative activity (to native hormone): 70.8%

B8: peptide of SEQ ID NO: 141 (peptide)
peptide: Y[Aib]EGTFTSDYSIYLDKQAA[Aib]EFVNWLLAGGPSSGAPPPSK([βAla-Suc-Palmitoyl])G-NH2
[9]
  EC50 (cAMP reporter): 2 pM
[10]
  EC50 (cAMP reporter): 1 pM
[11]
  EC50 (cAMP reporter): 58 pM

B9: peptide of SEQ ID NO: 90 (peptide)
peptide: H[Aib]QGTFTSDK([γGlu-γGlu-Palmitoyl])SKYLDERAAQDFVQWLLDGGPSSGAPPPS-NH2
modifications: N-terminus assumed
SMILES: CCCCCCCCCCCCCCCC(=O)N[C@@H](CCC(=O)N[C@@H](CCC(=O)NCCCC[C@H](NC(=O)[C@H](CC(=O)O)NC(=O)[C@H](CO)NC(=O)[C@@H](NC(=O)[C@H](Cc1ccccc1)NC(=O)[C@@H](NC(=O)CNC(=O)[C@H](CCC(N)=O)NC(=O)C(C)(C)NC(=O)[C@@H](N)Cc1c[nH]cn1)[C@@H](C)O)[C@@H](C)O)C(=O)N[C@@H](CO)C(=O)N[C@@H](CCCCN)C(=O)N[C@@H](Cc1ccc(O)cc1)C(=O)N[C@@H](CC(C)C)C(=O)N[C@@H](CC(=O)O)C(=O)N[C@@H](CCC(=O)O)C(=O)N[C@@H](CCCNC(=N)N)C(=O)N[C@@H](C)C(=O)N[C@@H](C)C(=O)N[C@@H](CCC(N)=O)C(=O)N[C@@H](CC(=O)O)C(=O)N[C@@H](Cc1ccccc1)C(=O)N[C@H](C(=O)N[C@@H](CCC(N)=O)C(=O)N[C@@H](Cc1c[nH]c2ccccc12)C(=O)N[C@@H](CC(C)C)C(=O)N[C@@H](CC(C)C)C(=O)N[C@@H](CC(=O)O)C(=O)NCC(=O)NCC(=O)N1CCC[C@H]1C(=O)N[C@@H](CO)C(=O)N[C@@H](CO)C(=O)NCC(=O)N[C@@H](C)C(=O)N1CCC[C@H]1C(=O)N1CCC[C@H]1C(=O)N1CCC[C@H]1C(=O)N[C@@H](CO)C(N)=O)C(C)C)C(=O)O)C(=O)O
[6]
  EC50 (cAMP reporter): 17 pM
[7]
  EC50 (cAMP reporter): 2.7 pM
[8]
  EC50 (cAMP reporter): 5.6 pM

B10: peptide of SEQ ID NO: 140 (peptide)
peptide: Y[Aib]EGTFTSDYSIYLDKQAA[Aib]EFVNWLLAGGPSSGAPPPSK([Suc-Palmitoyl])G-NH2
[9]
  EC50 (cAMP reporter): 1 pM
[10]
  EC50 (cAMP reporter): 1 pM
[11]
  EC50 (cAMP reporter): 77 pM

B11: peptide of SEQ ID NO: 92 (peptide)
peptide: Y[Aib]QGTFTSDK([γGlu-γGlu-Palmitoyl])SIYLDKQAA[Aib]EFVNWLLDT-NH2
modifications: N-terminus assumed
SMILES: CCCCCCCCCCCCCCCC(=O)N[C@@H](CCC(=O)N[C@@H](CCC(=O)NCCCC[C@H](NC(=O)[C@H](CC(=O)O)NC(=O)[C@H](CO)NC(=O)[C@@H](NC(=O)[C@H](Cc1ccccc1)NC(=O)[C@@H](NC(=O)CNC(=O)[C@H](CCC(N)=O)NC(=O)C(C)(C)NC(=O)[C@@H](N)Cc1ccc(O)cc1)[C@@H](C)O)[C@@H](C)O)C(=O)N[C@@H](CO)C(=O)N[C@H](C(=O)N[C@@H](Cc1ccc(O)cc1)C(=O)N[C@@H](CC(C)C)C(=O)N[C@@H](CC(=O)O)C(=O)N[C@@H](CCCCN)C(=O)N[C@@H](CCC(N)=O)C(=O)N[C@@H](C)C(=O)N[C@@H](C)C(=O)NC(C)(C)C(=O)N[C@@H](CCC(=O)O)C(=O)N[C@@H](Cc1ccccc1)C(=O)N[C@H](C(=O)N[C@@H](CC(N)=O)C(=O)N[C@@H](Cc1c[nH]c2ccccc12)C(=O)N[C@@H](CC(C)C)C(=O)N[C@@H](CC(C)C)C(=O)N[C@@H](CC(=O)O)C(=O)N[C@H](C(N)=O)[C@@H](C)O)C(C)C)[C@@H](C)CC)C(=O)O)C(=O)O
[6]
  EC50 (cAMP reporter): 21 pM
[7]
  EC50 (cAMP reporter): 3.1 pM
[8]
  EC50 (cAMP reporter): 10.5 pM

B12: peptide of SEQ ID NO: 143 (peptide)
peptide: YXEGTFTSDXSIYLDKQAAXEFVNWLLAGGPSSGAPPPS
modifications: aib at 2 and 20; 4-aminoPhe at 10 acylated F(4-aminoγEγEC16); NH2
[9]
  EC50 (cAMP reporter): 3 pM
[10]
  EC50 (cAMP reporter): 2 pM
[11]
  EC50 (cAMP reporter): 165 pM
